From the Immune Epitope Database (IEDB)

Assays:
Assay in all cases: IEDB peptide-MHC binding, purified MHC/competitive/radioactivity; filed as Kd, often an IC50 or EC50 that approximates it; ≥ and ≤ were set here for values at or beyond the usual limits of such assays
HLA-A*02:06 = target: HLA-A*02:06
HLA-A*02:02 = target: HLA-A*02:02
HLA-A*02:03 = target: HLA-A*02:03
HLA-A*03:01 = target: HLA-A*03:01
HLA-A*11:01 = target: HLA-A*11:01
HLA-A*31:01 = target: HLA-A*31:01
HLA-A*33:01 = target: HLA-A*33:01
HLA-A*68:01 = target: HLA-A*68:01
[1] = source organism: Dengue virus 2 Jamaica/1409/1983
[2] = source organism: Vaccinia virus WR
[3] = source organism: SARS coronavirus Tor2
[4] = source organism: Mammarenavirus whitewaterense

| Sequence | Kd (HLA-A*02:02; [2]) | Kd (HLA-A*02:03; [2]) | Kd (HLA-A*02:06; [2]) | also measured |
| --- | --- | --- | --- | --- |
| AILLVAVSFV | – | – | – | Kd (HLA-A*02:06; [1]): 60.9 nM |
| LIKTLSPAHL | 1850 nM | 356 nM | 10200 nM | – |
| KVLSIMAFIL | 2.32 nM | 684 nM | 19.1 nM | – |
| HAFLCLFLL | – | – | – | Kd (HLA-A*02:02; [3]): 20.7 nM; Kd (HLA-A*02:03; [3]): 46.5 nM; Kd (HLA-A*02:06; [3]): 1.22 nM |
| DLAIKQYGDI | 17900 nM | ≥ 33300 nM | ≥ 46500 nM | – |
| AIKSNNHLT | ≥ 50700 nM | ≥ 28600 nM | ≥ 77100 nM | – |
| VAKCCSKTNT | 14700 nM | ≥ 21700 nM | ≥ 40800 nM | – |
| DINESMSQMV | 312 nM | 488 nM | 4150 nM | – |
| KLMGHFSWWT | – | – | – | Kd (HLA-A*02:02; [3]): 64.4 nM; Kd (HLA-A*02:03; [3]): 213 nM; Kd (HLA-A*02:06; [3]): 99.1 nM |
| ITLILSNKL | 5110 nM | 17100 nM | 396 nM | – |
| LTLKGMSYV | – | – | – | Kd (HLA-A*02:06; source organism: Dengue virus 1 Singapore/S275/1990): 7 nM |
| IVYGRSNAIL | 91.6 nM | 33.4 nM | 424 nM | – |
| TIESAKTKI | 16300 nM | ≥ 54100 nM | ≥ 51100 nM | – |
| ITDQTVNICI | ≥ 70000 nM | ≥ 70400 nM | 10400 nM | – |
| RLQMAGVEV | 326 nM | 531 nM | 4110 nM | – |
| YVILKDPRIA | 6010 nM | 355 nM | 1900 nM | – |
| PLVAGGLLTV | – | – | – | Kd (HLA-A*02:03; [1]): 35.1 nM |
| LTGTFVTAFI | 672 nM | 596 nM | 413 nM | – |
| TVDVRNIVT | 13400 nM | 13100 nM | ≥ 54000 nM | – |
| YLYTEYFLFL | 0.684 nM | 1.32 nM | 0.841 nM | – |
| IVVPVIDRL | 144 nM | 226 nM | 30.9 nM | – |

| Sequence | Kd (HLA-A*02:02; [2]) | Kd (HLA-A*02:03; [2]) | Kd (HLA-A*02:06; [2]) | also measured |
| --- | --- | --- | --- | --- |
| ELENKKVEYV | ≥ 21400 nM | 3650 nM | ≥ 69800 nM | – |
| FLVLIMLII | – | – | – | Kd (HLA-A*02:02; [3]): 1630 nM; Kd (HLA-A*02:03; [3]): 9730 nM; Kd (HLA-A*02:06; [3]): 1350 nM |
| SIDHCSSFIV | 172 nM | 772 nM | 30.3 nM | – |
| FTELENKKV | 19600 nM | 8080 nM | 6840 nM | – |
| PLSPDTCLLA | 11200 nM | 9310 nM | 19900 nM | – |
| FTLLFQLCT | – | – | – | Kd (HLA-A*02:02; [3]): 1100 nM; Kd (HLA-A*02:03; [3]): 744 nM; Kd (HLA-A*02:06; [3]): 140 nM |
| PLPSLEYGA | 11400 nM | 18900 nM | ≥ 42500 nM | – |
| TQFNFNGHT | ≥ 43300 nM | 14400 nM | ≥ 10000 nM | – |
| YCHGILLKDV | – | – | – | Kd (HLA-A*02:02; [4]): ≥ 70000 nM; Kd (HLA-A*02:03; [4]): 13000 nM; Kd (HLA-A*02:06; [4]): 14900 nM |
| LIVNSVLLFL | – | – | – | Kd (HLA-A*02:02; [3]): 3.67 nM; Kd (HLA-A*02:03; [3]): 90.4 nM; Kd (HLA-A*02:06; [3]): 10.8 nM |
| EILSNTTKTL | 345 nM | 101 nM | ≥ 69800 nM | – |
| SAGFTATICL | 6900 nM | ≥ 20100 nM | 2410 nM | – |
| QLFNHTMFIL | – | – | – | Kd (HLA-A*02:02; source organism: Homo sapiens): 0.423 nM; Kd (HLA-A*02:03; source organism: Homo sapiens): 8.18 nM |
| NIADAARHY | – | – | – | Kd (HLA-A*03:01; [2]): 6720 nM; Kd (HLA-A*11:01; [2]): 11300 nM; Kd (HLA-A*31:01; [2]): 5040 nM; Kd (HLA-A*33:01; [2]): 7730 nM; Kd (HLA-A*68:01; [2]): 469 nM |
| VVKLTAVCMK | – | – | – | Kd (HLA-A*03:01; [2]): 115 nM; Kd (HLA-A*11:01; [2]): 121 nM; Kd (HLA-A*31:01; [2]): 208 nM; Kd (HLA-A*33:01; [2]): 2680 nM; Kd (HLA-A*68:01; [2]): 723 nM |
| AVFKDSFLR | – | – | – | Kd (HLA-A*03:01; [2]): 16.2 nM; Kd (HLA-A*11:01; [2]): 6.49 nM; Kd (HLA-A*31:01; [2]): 3.03 nM; Kd (HLA-A*33:01; [2]): 323 nM; Kd (HLA-A*68:01; [2]): 0.821 nM |
| LSARNKLFK | – | – | – | Kd (HLA-A*03:01; [2]): 2.21 nM; Kd (HLA-A*11:01; [2]): 0.532 nM; Kd (HLA-A*31:01; [2]): 168 nM; Kd (HLA-A*33:01; [2]): 16100 nM; Kd (HLA-A*68:01; [2]): 14.9 nM |
| KIIAVFDSK | – | – | – | Kd (HLA-A*03:01; [2]): 8.19 nM; Kd (HLA-A*11:01; [2]): 6.68 nM; Kd (HLA-A*31:01; [2]): 126 nM; Kd (HLA-A*33:01; [2]): 7970 nM; Kd (HLA-A*68:01; [2]): 474 nM |
| CTDPSERVFK | – | – | – | Kd (HLA-A*03:01; [2]): 543 nM; Kd (HLA-A*11:01; [2]): 10 nM; Kd (HLA-A*31:01; [2]): 2930 nM; Kd (HLA-A*33:01; [2]): ≥ 54500 nM; Kd (HLA-A*68:01; [2]): 56 nM |
| QSLCFLLTQK | – | – | – | Kd (HLA-A*03:01; [3]): 6.2 nM; Kd (HLA-A*11:01; [3]): 10.8 nM; Kd (HLA-A*31:01; [3]): 54.2 nM; Kd (HLA-A*33:01; [3]): 1470 nM; Kd (HLA-A*68:01; [3]): 63.8 nM |
| KSTVKLVQR | – | – | – | Kd (HLA-A*03:01; [2]): 16500 nM; Kd (HLA-A*11:01; [2]): 1420 nM; Kd (HLA-A*31:01; [2]): 4.44 nM; Kd (HLA-A*33:01; [2]): 1480 nM; Kd (HLA-A*68:01; [2]): 1530 nM |
